Positions count from the first letter of the chain named.

One may read the EC50 as the midpoint of the concentration-response curve.

Test [1] has as its target T1, human DR4 (Death Receptor 4), cell surface expressed on human tumor cell lines (human, UniProt O00220 24-468).
T1 construct: also called TNFRSF10A; TRAIL-R1
T1 sequence: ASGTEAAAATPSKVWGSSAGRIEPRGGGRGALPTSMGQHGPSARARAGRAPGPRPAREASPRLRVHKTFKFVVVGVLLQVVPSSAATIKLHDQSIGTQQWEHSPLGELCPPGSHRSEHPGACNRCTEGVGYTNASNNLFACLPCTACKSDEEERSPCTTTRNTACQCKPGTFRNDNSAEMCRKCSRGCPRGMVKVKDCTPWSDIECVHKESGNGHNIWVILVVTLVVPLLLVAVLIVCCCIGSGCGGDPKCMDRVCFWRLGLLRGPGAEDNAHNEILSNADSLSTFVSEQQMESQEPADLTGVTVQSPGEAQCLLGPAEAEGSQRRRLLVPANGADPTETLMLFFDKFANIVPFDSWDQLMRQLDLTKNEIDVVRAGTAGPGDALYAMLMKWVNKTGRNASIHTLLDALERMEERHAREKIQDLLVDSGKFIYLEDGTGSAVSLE
The experiment in a line: flow cytometry, HCT-116 cells, average ± SEM. Background: Flow cytometry measures light scatter and fluorescence of single cells or particles in a stream.

Test [2] deals with T1, human DR4 (Death Receptor 4), cell …. In words: flow cytometry, MDA-MB-231 cells, N = 1.
For test [3] the target is unchanged. The experiment in a line: flow cytometry, PANC-1 cells, n = 3.
In test [4] the target is T2, dog FAPα on Expi293F cells (dog (Canis familiaris), UniProt A5D7B7 1-760 (bovine entry)).
T2 chain: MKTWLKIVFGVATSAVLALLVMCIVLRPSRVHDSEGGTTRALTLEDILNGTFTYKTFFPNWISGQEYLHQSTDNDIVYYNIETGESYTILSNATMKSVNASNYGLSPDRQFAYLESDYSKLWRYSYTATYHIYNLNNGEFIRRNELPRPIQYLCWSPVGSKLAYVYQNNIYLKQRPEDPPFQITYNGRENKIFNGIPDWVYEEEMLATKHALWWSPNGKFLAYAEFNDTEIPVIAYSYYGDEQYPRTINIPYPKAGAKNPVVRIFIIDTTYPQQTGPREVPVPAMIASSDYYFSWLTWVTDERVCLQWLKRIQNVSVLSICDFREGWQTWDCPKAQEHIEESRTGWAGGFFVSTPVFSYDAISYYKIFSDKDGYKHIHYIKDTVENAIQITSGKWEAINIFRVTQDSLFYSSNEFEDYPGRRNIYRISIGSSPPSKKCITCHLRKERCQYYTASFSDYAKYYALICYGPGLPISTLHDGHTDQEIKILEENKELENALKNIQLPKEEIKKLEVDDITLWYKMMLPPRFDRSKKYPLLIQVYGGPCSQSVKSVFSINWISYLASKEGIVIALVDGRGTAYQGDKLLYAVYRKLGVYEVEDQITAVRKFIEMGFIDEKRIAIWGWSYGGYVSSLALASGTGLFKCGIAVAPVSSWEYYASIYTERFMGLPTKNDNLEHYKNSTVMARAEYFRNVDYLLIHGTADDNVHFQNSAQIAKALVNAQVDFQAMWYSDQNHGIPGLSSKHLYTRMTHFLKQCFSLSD
The experiment in a line: flow cytometry on Expi293F cells transiently expressing dog FAPα, gMFI PE. Here is the method: Binding of BisG1-FAPα-FERL/DR4-FERR, BisG1-FAPα-FEAL/b12-FEAR and IgG1-FAPα-FERL to FAPα of species commonly used for nonclinical toxicology studies was assessed by flow cytometry using Expi293F cells transiently expressing FAPα from different animal species. IgG1-b12 was included as negative control.
Expi293F cells expressing recombinant FAPα from various species (human, cynomolgus monkey, dog, pig, rat or mouse) were seeded (20,000 cells/well) in 96-Well round bottom plates (Greiner Bio-one, Cat #650101). Antibody dilutions were prepared using FACS buffer, consisting of PBS (Capricorn Scientific, Cat #PBS-10XA, diluted to 1×PBS in distilled water)+1% BSA (Roche, Cat #10735086001)+0.02% Sodium Azide (Bio-World, Cat #41920044-3). Plates were centrifuged, supernatant was removed, and cells were resuspended in 100 μL of antibody dilutions (concentration range 30-0.00017 μg/mL with three-fold serial dilutions using FACS buffer) of BisG1-FAPα-FERL/DR4-FERR, BisG1-FAPα-FEAL/b12-FEAR, IgG1-FAPα-FERL and IgG1-b12 and incubated for 30 min at 4° C. […] After 30 min incubation at 4° C., cells were washed with FACS buffer and resuspended in FACS buffer supplemented with TO-PRO-3 Iodide viability marker (Invitrogen, Cat #T3605, diluted 1:4,000). Antibody binding to viable cells (gMFI of PE on TO-PRO-3 negative cells) was analyzed by flow cytometry on a FACS Celesta and FACS_Diva software (first two experiments) or iQue® 3 and FlowJo software (last experiment). gMFI was determined and visualized using GraphPad Prism. Binding curves were analyzed using nonlinear regression analysis. The concentration (pg/mL) at which 50% of the maximal effect was observed (EC₅₀) was derived from the fitted curves.

B1: IgG1-DR4-FERR (antibody, V domains shown)
VH: QVQLQESGPGLVKPSGTLSLTCAVSGGSISSYSWWSWIRQPPGKGLEWIGELYHSGSTNYNPSLKSRVTISVDKSKNQFSLKLRSVTAADTAVYYCVRGVATIDYWGQGTLVTVSS
VL: QSALTQPPSASGSPGQSVTISCTGTSSDVGGYNFVSWYQQDPGKAPKLLIYEVTKRPSGVPDRFSGSKSGNTASLTVSGLQAEDEADYYCSSYAGSNNVMFGGGTKLTVLG
notes: Bivalent monoclonal IgG1 lambda
In the case of B1, the EC50 in test [1] is 0.16 µg/mL; in test [2] it was 0.24 µg/mL; in test [3] it was 0.39 µg/mL.

B2: BisG1-FAPα-FERL/DR4-FERR (bispecific antibody, human IgG1, kappa, lambda)
heavy 1: EVQLLESGGGLVQPGGSPRLSCEASGFTFSSYALSWVRQAPGKGLEWVSAISGSGGGRYYADSVKGRFTISRDNSKNTLFLQMNSLRAEDTAVYYCAKEGYSSSGTYWDHWGQGTLVTVSSASTKGPSVFPLAPSSKSTSGGTAALGCLVKDYFPEPVTVSWNSGALTSGVHTFPAVLQSSGLYSLSSVVTVPSSSLGTQTYICNVNHKPSNTKVDKRVEPKSCDKTHTCPPCPAPEFERGPSVFLFPPKPKDTLMISRTPEVTCVVVDVSHEDPEVKFNWYVDGVEVHNAKTKPREEQYNSTYRVVSVLTVLHQDWLNGKEYKCKVSNKALPAPIEKTISKAKGQPREPQVYTLPPSREEMTKNQVSLTCLVKGFYPSDIAVEWESNGQPENNYKTTPPVLDSDGSFLLYSKLTVDKSRWQQGNVFSCSVMHEALHNHYTQKSLSLSPG
light 1: AIQMTQSPSSVSASVGDRVTITCRASQGVSSWLAWYQQKPGRAPKLLIYVASTLQSGVPSRFSGSGSGTDFTLTINSLQPEDFATYYCQQANSFPPTFGQGTRLEMKRTVAAPSVFIFPPSDEQLKSGTASVVCLLNNFYPREAKVQWKVDNALQSGNSQESVTEQDSKDSTYSLSSTLTLSKADYEKHKVYACEVTHQGLSSPVTKSFNRGEC
heavy 2: QVQLQESGPGLVKPSGTLSLTCAVSGGSISSYSWWSWIRQPPGKGLEWIGELYHSGSTNYNPSLKSRVTISVDKSKNQFSLKLRSVTAADTAVYYCVRGVATIDYWGQGTLVTVSSASTKGPSVFPLAPSSKSTSGGTAALGCLVKDYFPEPVTVSWNSGALTSGVHTFPAVLQSSGLYSLSSVVTVPSSSLGTQTYICNVNHKPSNTKVDKRVEPKSCDKTHTCPPCPAPEFERGPSVFLFPPKPKDTLMISRTPEVTCVVVDVSHEDPEVKFNWYVDGVEVHNAKTKPREEQYNSTYRVVSVLTVLHQDWLNGKEYKCKVSNKALPAPIEKTISKAKGQPREPQVYTLPPSREEMTKNQVSLTCLVKGFYPSDIAVEWESNGQPENNYKTTPPVLDSDGSFFLYSRLTVDKSRWQQGNVFSCSVMHEALHNHYTQKSLSLSPG
light 2: QSALTQPPSASGSPGQSVTISCTGTSSDVGGYNFVSWYQQDPGKAPKLLIYEVTKRPSGVPDRFSGSKSGNTASLTVSGLQAEDEADYYCSSYAGSNNVMFGGGTKLTVLGQPKAAPSVTLFPPSSEELQANKATLVCLISDFYPGAVTVAWKADSSPVKAGVETTTPSKQSNNKYAASSYLSLTPEQWKSHRSYSCQVTHEGSTVEKTVAPTECS
notes: Human IgG1 bispecific made by controlled Fab-arm exchange of IgG1-FAPα-FERL and IgG1-DR4-FERR; monovalent for FAPα and for DR4; also called GEN1057
For the molecule B2, the binding result in test [4] is “binds”. The EC50 was determined as 0.52 µg/mL in test [1], 0.71 µg/mL in test [2] and 1.4 µg/mL in test [3].

B3: BisG1-b12-FERL/DR4-FERR (bispecific antibody, human IgG1, kappa, lambda)
heavy 1: QVQLVQSGAEVKKPGASVKVSCQASGYRFSNFVIHWVRQAPGQRFEWMGWINPYNGNKEFSAKFQDRVTFTADTSANTAYMELRSLRSADTAVYYCARVGPYSWDDSPQDNYYMDVWGKGTTVIVSSASTKGPSVFPLAPSSKSTSGGTAALGCLVKDYFPEPVTVSWNSGALTSGVHTFPAVLQSSGLYSLSSVVTVPSSSLGTQTYICNVNHKPSNTKVDKRVEPKSCDKTHTCPPCPAPEFERGPSVFLFPPKPKDTLMISRTPEVTCVVVDVSHEDPEVKFNWYVDGVEVHNAKTKPREEQYNSTYRVVSVLTVLHQDWLNGKEYKCKVSNKALPAPIEKTISKAKGQPREPQVYTLPPSREEMTKNQVSLTCLVKGFYPSDIAVEWESNGQPENNYKTTPPVLDSDGSFLLYSKLTVDKSRWQQGNVFSCSVMHEALHNHYTQKSLSLSPG
light 1: EIVLTQSPGTLSLSPGERATFSCRSSHSIRSRRVAWYQHKPGQAPRLVIHGVSNRASGISDRFSGSGSGTDFTLTITRVEPEDFALYYCQVYGASSYTFGQGTKLERKRTVAAPSVFIFPPSDEQLKSGTASVVCLLNNFYPREAKVQWKVDNALQSGNSQESVTEQDSKDSTYSLSSTLTLSKADYEKHKVYACEVTHQGLSSPVTKSFNRGEC
heavy 2: B2 heavy 2
light 2: B2 light 2
notes: Fab-arm exchange of IgG1-b12-FERL and IgG1-DR4-FERR; also called bsIgG1-ctrl-FERLxDR4-FERR
For B3, the EC50 in test [1] is 0.57 µg/mL; in test [2] it was 0.39 µg/mL; in test [3], 1.44 µg/mL. The “Max MFI (at 90 µg/mL)” value in test [2] came out at 7840 MFI.

B4: IgG1-FAPα-FERL (antibody)
heavy: B2 heavy 1
light: B2 light 1
notes: Bivalent monoclonal IgG1 kappa
As to B4, the binding result in test [4] is reported as “binds”.

B5: BisG1-FAPα-FEAL/b12-FEAR (bispecific antibody, human IgG1, kappa)
heavy 1: B2 heavy 1 with R240G, D269A
light 1: B2 light 1
heavy 2: B3 heavy 1 with R246G, D275A, L415F, K419R
light 2: B3 light 1
notes: Fab-arm exchange of IgG1-FAPα-FEAL and IgG1-b12-FEAR
With B5, the binding result in test [4] was “binds”.

These data come from patent US20250002610A1 (Genmab, published 2025).
